T1: caveolin-1 protein (UniProt Q03135 1-178)
T1 chain: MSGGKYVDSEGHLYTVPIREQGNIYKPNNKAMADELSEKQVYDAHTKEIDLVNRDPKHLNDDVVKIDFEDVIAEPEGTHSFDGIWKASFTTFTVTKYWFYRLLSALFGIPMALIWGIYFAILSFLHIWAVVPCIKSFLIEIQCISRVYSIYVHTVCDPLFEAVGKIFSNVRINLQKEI

B1: extracellular portion of CD98 (212-630 of CD98hc) (domain or fragment)
chain: ELPAQKWWHTGALYRIGDLQAFQGHGAGNLAGLKGRLDYLSSLKVKGLVLGPIHKNQKDDVAQTDLLQIDPNFGSKEDFDSLLQSAKKKSIRVILDLTPNYRGENSWFSTQVDTVATKVKDALEFWLQAGVDGFQVRDIENLKDASSFLAEWQNITKGFSEDRLLIAGTNSSDLQQILSLLESNKDLLLTSSYLSDSGSTGEHTKSLVTQYLNATGNRWCSWSLSQARLLTSFLPAQLLRLYQLMLFTLPGTPVFSYGDEIGLDAAALPGQPMEAPVMLWDESSFPDIPGAVSANMTVKGQSEDPGSLLSLFRRLSDQRSKERSLLHGDFHAFSAGPGLFSYIRHWDQNERFLVVLNFGDVGLSAGLQASDLPASASLPAKADLLLSTQPGREEGSPLELERLKLEPHEGLLLRFPYAA

Legend:
[1] = biological target: domain 1 of CD147 with the K63A mutation (human, UniProt P35613-2 22-205, K63A); test: SPR
[2] = biological target: T1, caveolin-1 protein; test: SPR
[3] = biological target: B1; test: SPR
[4] = biological target: T1, caveolin-1 protein; test: SPR; in the presence of 5A12 antibody

Binder	Kd [1] [nM]	Kd [2] [nM]	Kd [3] [nM]	Kd [4] [nM]
B1	7490	–	–	–
extracellular portion of CD147 (ECD), amino acids 22–205 (domain or fragment) AAGTVFTTVEDLGSKILLTCSLNDSATEVTGHRWLKGGVVLKEDALPGQKTEFKVDSDDQWGEYSCVFLPEPMGTANIQLHGPPRVKAVKSSEHINEGETAMLVCKSESVPPVTDWAWYKITDSEDKALMNGSESRFFVSSSQGRSELHIENLNMEADPGQYRCNGTSSKGSDQAIITLRVRSH	–	35.7	818	14.9

Source: publication PMC8632965 (2021)
